From patent US7541446B2, “Tet repressor-based transcriptional regulatory proteins” (Tet Systems Holding GmbH & Co. KG, priority 1999, dated 2009)

Legend:
[1] = test system: luciferase activity; assay: Doxycycline-dependent regulation of luciferase in HeLa cells, transient transfection of rtTA2-34R^S or rtTA2; assay type: cell-based
Excerpt: The synthetic gene encoding rtTA2-34R^S was cloned into pUHD15-1 and expression was examined in HeLa cells.

[2] = test system: tetO DNA; assay: DNA retardation experiment with radioactively labeled tetO DNA; assay type: binding; conditions: produced in HeLa cells; compared with rtTA2
Excerpt: Cellular material from cells transfected as described above was also used to compare the binding of rtTA2-34R and rtTA2 (rtTA fused to 3 minimal activation domains) to operator DNA in DNA retardation experiments.
rtTA2 and rtTA2-34R^S were produced in HeLa cells and exposed to radioactively labeled tetO DNA in presence (+) and absence (−) of Dox.

B1: rtTA2-34R^S: first 206 amino acids of rtTA-34R fused to 3 minimal VP-16 activation domains (FFF), synthetic gene with human codon frequencies, SEQ ID NO: 5 (protein)
chain: MSRLDKSKVINSALELLNGVGIEGLTTRKLAQKLGVEQPTLYWHVKNKRALLDALPIEMLDRHHTHFCPLEGESWQDFLRNNAKSFRCALLSHRDGAKVHLGTRPTEKQYETLENQLAFLCQQGFSLENALYALSAVGHFTLGCVLEEQEHQVAKEERETPTTDSMPPLLRQAIELFDRQGAEPAFLFGLELIICGLEKQLKCESGGPADALDDFDLDMLPADALDDFDLDMLPADALDDFDLDMLPG
induction in cells treated with Dox [1]: up to 20 fold | luciferase activity in relative light units, + Dox ([1]; + Dox): 20.325 | luciferase activity in relative light units, − Dox ([1]; − Dox): 1 | residual binding to operator DNA (binding in the absence of Dox) [2]: greatly reduced
